Here are results for 167 variants from the RNAGym collection of RNA variant scans (doi:10.7554/elife.80360).

B1: CPEB3 Ribozyme (parent)
chain: GGGGGCCACAGCAGAAGCGUUCACGUCGCGGCCCCUGUCAGAUUCUGGUGAAUCUGCGAAUUCUGCUGU

In the data set the parent is B1. Briefly: self-cleavage, relative activity (ratio to wild type); higher = more cleavage; co-transcriptional.
For U43G C45U, the self-cleavage was 1.02.

Take A40U U43G: the self-cleavage came out at 0.299.

Consider G41C U61A, for which the self-cleavage is 0.484.

For the variant A40U C54A, the self-cleavage came to 0.435.

In the case of U43G G68C, the self-cleavage stood at 0.902.

Consider A40U A60G, for which the self-cleavage is 0.47.

Turning to G41C C54G, the self-cleavage came out at 0.98.

Turning to G41C C54U, the self-cleavage was determined as 0.906.

For G41C C54A, the self-cleavage amounted to 0.931.

Consider U43C U44G, for which the self-cleavage is 0.904.

As for G41C A51G, the self-cleavage was 0.687.

On to U43C A52G, for which the self-cleavage was 0.965.

With G41U U55A, the self-cleavage stood at 0.551.

On to G41U U55C, for which the self-cleavage is 0.34.

As for U43G U46A, the self-cleavage was determined as 0.959.

Regarding U44A U61G, the self-cleavage was 0.645.

Regarding U43C G48A, the self-cleavage is 1.02.

Turning to U44A U55G, the self-cleavage is 0.551.

Consider G41C C66U, for which the self-cleavage is 0.75.

Turning to G41C C66A, the self-cleavage came to 0.285.

On to A42U U61C, for which the self-cleavage came out at 0.435.

Turning to U44A A52G, the self-cleavage was determined as 0.988.

For the variant U44A A52C, the self-cleavage was found to be 0.912.

G41C G47C: the self-cleavage worked out at 0.939.

Turning to G41C G47U, the self-cleavage was 0.935.

Consider U43A A60C, for which the self-cleavage was 0.281.

Turning to U43G G48U, the self-cleavage is 1.01.

G41C U67C: the self-cleavage stood at 0.776.

For the variant U43C C57U, the self-cleavage was found to be 0.394.

On to U44A U64C, for which the self-cleavage came to 0.76.

Take A42C U61G: the self-cleavage stood at 0.518.

Regarding A42C U43C, the self-cleavage is 0.777.

Turning to G41C U53G, the self-cleavage was determined as 0.552.

Turning to G41U C63A, the self-cleavage was determined as 0.37.

For the variant G41U C63G, the self-cleavage is 0.43.

On to G41C A42G, for which the self-cleavage amounted to 0.754.

Regarding U43G G56U, the self-cleavage is 0.385.

As for U43A U53A, the self-cleavage is 0.946.

As for U43A U53C, the self-cleavage came out at 0.795.

Regarding A42U G56C, the self-cleavage is 0.326.

Regarding U44A U62A, the self-cleavage was 0.838.

On to A42G G68U, for which the self-cleavage is 1.01.

In the case of A42G G68C, the self-cleavage was determined as 0.963.

As to A42G G68A, the self-cleavage is 0.98.

For the variant G41A G56A, the self-cleavage was found to be 0.77.

For the variant A42G U44G, the self-cleavage came to 0.904.

As to G41U U49G, the self-cleavage was found to be 0.848.

As for G41U U49A, the self-cleavage was 0.97.

Take A42U G48U: the self-cleavage turned out to be 0.99.

As to A42U C54U, the self-cleavage turned out to be 0.81.

With U43C G56U, the self-cleavage turned out to be 0.638.

In the case of A42G C54A, the self-cleavage amounted to 0.708.

Take A42G C54G: the self-cleavage was 0.71.

For U43C U69C, the self-cleavage is 1.07.

Consider U43C U69G, for which the self-cleavage stood at 1.03.

As for G41U C66U, the self-cleavage was 0.75.

As to A42U U46G, the self-cleavage worked out at 1.01.

On to A42U U46A, for which the self-cleavage came out at 1.03.

As for A42U C66G, the self-cleavage was determined as 0.682.

On to G41A U64A, for which the self-cleavage was found to be 0.419.

On to U43C G65U, for which the self-cleavage is 0.568.

On to U43C G65A, for which the self-cleavage came to 0.732.

For the variant A40U G50U, the self-cleavage turned out to be 0.749.

As to A42U U53C, the self-cleavage came to 0.935.

G41A A51G: the self-cleavage turned out to be 0.797.

In the case of G41A A51C, the self-cleavage is 0.483.

Turning to G41A U53C, the self-cleavage worked out at 0.318.

For the variant U43C U61C, the self-cleavage is 0.511.

With U43C U61G, the self-cleavage was 0.562.

Regarding U43C U61A, the self-cleavage came out at 0.764.

As for A40U G48A, the self-cleavage amounted to 0.977.

As for U43C C66A, the self-cleavage was 0.614.

As for G41A U44A, the self-cleavage is 0.302.

In the case of G41A U44C, the self-cleavage was 0.413.

As for U43G G47U, the self-cleavage was 0.999.

As to U43G G47A, the self-cleavage was found to be 0.95.

Regarding G41U G47A, the self-cleavage came to 1.02.

For U43A C57G, the self-cleavage was 0.357.

On to U43A U64G, for which the self-cleavage amounted to 0.578.

With U43A U55G, the self-cleavage came to 0.283.

On to U43A U55C, for which the self-cleavage is 0.289.

In the case of U43G C66G, the self-cleavage was determined as 0.484.

For the variant A42U U49A, the self-cleavage turned out to be 0.958.

Consider U43A A52G, for which the self-cleavage was found to be 1.

In the case of U43A A52C, the self-cleavage was found to be 0.991.

In the case of A42G C45G, the self-cleavage is 0.92.

Take A40U: the self-cleavage worked out at 0.901.

On to U43G G50C, for which the self-cleavage is 0.864.

In the case of G41U U67A, the self-cleavage was 0.888.

Turning to G41U U67G, the self-cleavage is 0.865.

On to A42C U67G, for which the self-cleavage was determined as 0.919.

As for G41A C54A, the self-cleavage is 0.904.

Consider A42G U64A, for which the self-cleavage worked out at 0.602.

For A42G U64C, the self-cleavage was 0.678.

Regarding A42G U64G, the self-cleavage is 0.693.

Turning to U44A C54U, the self-cleavage was 0.923.

For the variant U43A U69C, the self-cleavage worked out at 1.04.

Regarding U43A G68A, the self-cleavage amounted to 0.933.

On to U44A G56U, for which the self-cleavage turned out to be 0.677.

Regarding U43G G58A, the self-cleavage was 0.881.

On to A40U G56U, for which the self-cleavage was 0.552.

On to A40U G56C, for which the self-cleavage turned out to be 0.475.

With A42U G68C, the self-cleavage was 0.964.

On to A42U G68U, for which the self-cleavage stood at 0.99.

U43A C45G: the self-cleavage came out at 0.868.

On to A42C U46C, for which the self-cleavage is 0.895.

On to A42C U46A, for which the self-cleavage came to 0.967.

For the variant U43A U62C, the self-cleavage is 0.668.

In the case of A42G A51G, the self-cleavage amounted to 0.894.

As for G41C G50A, the self-cleavage came to 0.693.

Take G41C G50U: the self-cleavage was determined as 0.698.

Regarding G41C G50C, the self-cleavage is 0.325.

Regarding A40U C57A, the self-cleavage was 0.333.

For A40U C57U, the self-cleavage was determined as 0.302.

With U43C G47U, the self-cleavage came out at 0.98.

As for A42U U64C, the self-cleavage is 0.609.

As to A40G U67A, the self-cleavage turned out to be 0.941.

For the variant G41U C45U, the self-cleavage was found to be 0.715.

For A40U A52C, the self-cleavage worked out at 0.561.

Regarding A40U A52U, the self-cleavage is 0.477.

As to U43G C63U, the self-cleavage came to 0.751.

In the case of U43G C63A, the self-cleavage was found to be 0.436.

Turning to U44A A51C, the self-cleavage turned out to be 0.939.

On to U44A A51G, for which the self-cleavage came to 0.936.

G41A A59U: the self-cleavage amounted to 0.332.

Turning to G41A A59G, the self-cleavage came out at 0.774.

As to A42G U53C, the self-cleavage was found to be 0.891.

For G41A A52C, the self-cleavage came out at 0.388.

As to U43G G65A, the self-cleavage was 0.453.

For A40U U61C, the self-cleavage is 0.258.

Take A40U U61A: the self-cleavage worked out at 0.5.

Turning to G41U U44C, the self-cleavage came to 0.366.

As for A42U A59C, the self-cleavage is 0.546.

Take A42U A59U: the self-cleavage is 0.677.

For the variant G41A U49A, the self-cleavage amounted to 0.885.

As for A40U C63A, the self-cleavage is 0.364.

Take U44A A60G: the self-cleavage turned out to be 0.725.

For U43C C63U, the self-cleavage stood at 0.914.

As for A42U G50A, the self-cleavage was 0.949.

Take U43A C63U: the self-cleavage worked out at 0.86.

A42C A59G: the self-cleavage was 0.961.

Turning to A42C A59U, the self-cleavage stood at 0.633.

For the variant A42C A59C, the self-cleavage amounted to 0.528.

Regarding G41C G58C, the self-cleavage stood at 0.85.

Turning to G41C G58U, the self-cleavage was 0.962.

G41U G48A: the self-cleavage stood at 0.998.

On to G41C G65C, for which the self-cleavage came out at 0.316.

Turning to A42G U62G, the self-cleavage worked out at 0.709.

Regarding A42G U62A, the self-cleavage amounted to 0.733.

Take U43C G68C: the self-cleavage stood at 1.01.

In the case of U43C G68A, the self-cleavage came to 1.03.

For G41U A52U, the self-cleavage came out at 0.526.

For G41C U69A, the self-cleavage is 0.932.

For the variant A42U U55C, the self-cleavage stood at 0.522.

As to U43A G58C, the self-cleavage was 0.901.

As for G41C U55A, the self-cleavage came out at 0.549.

Take G41C U55G: the self-cleavage stood at 0.369.

Consider A42U C45G, for which the self-cleavage worked out at 0.89.

Turning to A42U C45A, the self-cleavage amounted to 0.889.

Regarding A42U C45U, the self-cleavage came out at 0.997.

In the case of U43G U55C, the self-cleavage was 0.312.

Turning to U43C U49A, the self-cleavage amounted to 0.988.

For U43C U49G, the self-cleavage was found to be 0.949.

On to A42G U61C, for which the self-cleavage was 0.521.

On to A42G U61A, for which the self-cleavage was 0.693.

As to A42C G65U, the self-cleavage was determined as 0.574.

Regarding A42C G65C, the self-cleavage amounted to 0.474.
